Data from the nanobody polyreactivity screen of Harvey et al. (2022).

Assay: yeast display, Sf9 membrane polyspecificity reagent, FACS + sequencing; frameworks hold sequencing errors
How it was run: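 A nanobody's polyreactivity label depends on the gate it was sorted from. Yeast display cells were stained with 10% biotinylated, detergent-solubilized Sf9 membrane reagent for 1 hour at 4 °C, enriched on streptavidin microbeads and sorted by FACS. The low and high (top ~1%) gates were set on anti-HA fluorescence for expression and streptavidin fluorescence for reagent binding.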

| Sequence | polyreactivity (PSR sort gate) |
| --- | --- |
| QVQLVESGGGLVQAGGSLRLSCAASGSTFTLYAMGWYRQAPGKERELVATIDWSGGSTYYADSVKGRFTISRDNAKNTVYLQMNSLKPEDTAVYYCAADSYVVFYRGYTFIAVHSYEYWGQGTQVTVSS | low polyreactivity |
| QVQLVESGGGLVQAGGSLRLSCAASGSTLPYNAMGWYRQAPGKERELVAAISKSGGRTYYADSVKGRFTISRDNAKNTVYLQMNSLKPEDTAVYYCNAGPYRGGGGSSRYYWGQGTQVTVSS | high polyreactivity |
| QVQLVESGGGLVQAGGSLRLSCAASGFIFYHYAMGWYRQAPGKERELVAAISGRGGSTYYADSVKGRFTISRDNAKNTVYLQMNSLKPEDTAVYYCATDYSRTFDYWGQGTQVTVSS | high polyreactivity |
| QVQLVESGGGLVQAGGSLRLSCAASGITFDHYTMGWYRHAPGKEREFVADITGSGVRTYYADSVKGRFTISRDNAKNTVYLQMNCLKAEDNAVYYCAKRRTLYYSGKLGYWGQGTQVTVSS | high polyreactivity |
| QVQLVESGGGLVQAGGSLRLSCAASGRTSSVYAMGWYRQAPGKESELVAAINRSDGGTYYADSVKGRFTISRDNAKNTVYLQMNSLKPEDTAVYYCARRYYYQYRYDYWGQGTQVTVSS | high polyreactivity |
| QVQLVESGGGLVQAGGSLRLSCAASGGLFIGYAMGWYRQAPGKERELVAAISYSGGSTYYADSVKGRFTISRDNAKNTVYLQMNSLKPEDTAVYYCAAQVDRKYRWFNSWGQGTQVTVSS | high polyreactivity |
| QVQLVESGGGLVQAGGSLRLSCAASGSIFQRTAMGWYRQAPGNERELVASINSGGSTNYADSVKGRFTISRDNAKNTVYLQMNSLKPEDTAVYYCAAVRPWWRNKPQWPRYDYWGLGTQVTVSS | low polyreactivity |
| QVQLVESGGGLVQAGGSLRLSCAASVRTVDSYTMGWYRQAPGKERELVAAIRSSGGRTYADSVKGRFTISRDNAKNTVYLQMNSLKPEDTAVYYCAAARSYWAKYYYWGQGTQVTVSS | high polyreactivity |
| QVQLVESGGGLVQAGGSLRLSCAASGSIFLSYNMGRYRQAPGKERELVAAITSGGSTKYADSVKGRFTISRDNAKNTVYLQMNSLKPEDTAVYYCNATPYSRLGYWGQGTQVTVSS | high polyreactivity |
| QVQLVESGGGLVQAGGSLRLSCAASGRTFKGYAMGWYRQAPGKERELVAAITGSVGSTYYADSVKGRFTISRDNAKNTVYLQMNSLKPEDTAVYYCAKRWKATRARYDYWGLGTQVTVSS | high polyreactivity |
| QVQLVESGGGLVQAGGSLRLSCAASGRIFRKYAMGWSRQAPGKEREFVAAISSSGGITYYADSVKGRFTISRDNAKNTVYLQMNSLKPEDTAVYYCADLYPQHRYDYWGQGTQVTVSS | high polyreactivity |
| QVQLVESGGGLVQAGGTLRLTCAASGRTFYRYVMGWYRHAPVKERELFAAINWSGGSTYYADSVKGRFTISRDNAKNTVYLQMNSLKPEDTAVYYCAADLYTLRYGYRYEYWGQGTQVTVSS | high polyreactivity |
| QDQLVESGGGIVQEGGILRLSCAASGRIFVGYAMGWYRQAPGKERELVAAIRRYGTGTYYADSVKGRFTISRDNAKYTVYLKLNSLKTEDTAVYYCDAPELALYFPYDYWGQGTQVTVSS | low polyreactivity |
| QGQLVEAGGGLVQAGGSLRLSCAASGNTFKKYARGWYRQAPGKERELVAAISNGGSTTYADSVKGRFTISLDTAKNTVYLQMNSLKPEDTAVYYCNAGRPYGTQKRYDYWGQGTQVTVSS | low polyreactivity |
| QVQLVESGGGLVQAGGSLRLSCAASGFTIAGYAMGWYRQAPWKERELVAAISRGGITYYADSVKGRFTISRDNAKNTVYLQMNSLKPEDTAVYYCAAGKRWSTKYGYWGQGTQVTVSS | high polyreactivity |
| QVQLVESGGGLVQAGGSLRLSCAASGSIFDPNAMGWYRQAPGKERELVAVITWSSSSTYYADSVKGRFTISRDNAKNTVYLQMNSLKPEDTAVYYCAAVVQGTTVWWGYDYWGQGTLVTVSS | low polyreactivity |

| Sequence | polyreactivity (PSR sort gate) |
| --- | --- |
| QVQLVESGGGLVQAGGSLRLSCAASGIIFGRYAMGWYRQAPGKERELVAAITSGGSTSYADSVKGRFTISRDNAKNTVYLQMNSLKPEDTAVYYCAVVFVWGWPGYYWGQGTQVTVSS | high polyreactivity |
| QVQLVESGGGLVQAGGSLRLSCAASGFTLVKYVMGWYRQAPGKERELVAAINRSGTSTYYADSVKGRFTISRDNAKNTVYLQMNCLKPDDTAVYYCAADRSRNFDWGQGTQVTVSS | high polyreactivity |
| QVQLVESGGGLVQAGGSLRLSCAASGSTFVSYAMGWYRQAPGKERELVAAISTSGGTTYYADSVKGRFTISRDNAKNTVYLQMNSLKPEDTAVYYCAAYDFKYKGYDYWGQGTQVTVSS | high polyreactivity |
| QFQLVESGGGLVQAGGSLRLSCAASGRILSIYAMGWYSQAPGKESEMVAGITGGGRTHSADSVKGRFTISRDNAKNTVYLQMYSLKPEDTAVYSCSSLWRYQYRSKLSYYYWGQGTQVTVSS | high polyreactivity |
| QVQLVESGGGLVQAGGSLRLTCAASGSTFNAYTMGWYRQAPGKERELVAAISSGAGTYYADSVKGRFTISRDNAKYIVYLPMNSLKPEDTAVYYCAADPVGYYDPSVYWGQGTLVTVSS | low polyreactivity |
| QVQLVESGGGLVQAGGSLRLSCAASGSIFPRYAMGWYRQAPGKERELVAAITGSGSSTYYADSVKGRFTISRDNAKNTVYLQMNSLKPEDTAVYYCAARKARPPFPHPFDYYWGQGTQVTVSS | low polyreactivity |
| QVQLEESGGGLVQAGGSLRLSCSASGLILHGYAMGWYRQAPGKERELVAAITRSGGRTYYADSVKGRFTISRDNAKYTVYLQMNSLKPEDTAVYYCAALGWSGRYRYDYWGQGTQVTVSS | high polyreactivity |
| QVQLVESGGGLVQAGGSLRLSCAASGRIFGTNAMGWYRQAPGKERELVAAITWNADDTYYADSVKGRFTISRDNAKNTVYLQMNSLKPEDTAVYYCAADSYEGYYYWGQGTQVTVSS | low polyreactivity |
| QVQLVESGGGLVQAGGSLRLSCAASGSTFVRYAKGWYRQAPGKERELVAGISRRSGRTYYADSVKGRFTISRDNAKNTVYLQMNSLKPEDTAVYYCAARGIGGYEYWGQGTQVTVSS | high polyreactivity |
| QVQLVESGGGLVQAGGSLRLSCAASGFIFTNVMGWYRQAPGKERELVASISSGGRTYYADSVKGRFTISRDNAKNTVYLQLNSLKPEDTAVYYCAKKKLLSVPARGYDYVYYWGQGTQVTVSS | high polyreactivity |
| QVQLVESGGGLVQAGGSLRLSCAASGSLFGGYAMGWYRQAPGKERELVAAISGSGGSTYYADSVKGRFTISRDNAKNTVYLQMNSLKPEDTAVYYCAAEYYGTYSEGGESYDYWGQGTQVTVSP | low polyreactivity |
| QVQLVESGGGLVQAGGSLRLSCAASGSIFAPYAMGWYRQAPGKERELVAAISRSGGSTYYADSVKGRFTISRDNAKNTVYLQMNSLKPEDTAVYYCAVRNGLRQYRLDYWGQGTQVTVSS | high polyreactivity |
| QVQLVESGGGLVQAGGSLRLTCAASGRILVSYSMGWYRQAPGKERELVAAISRSGGSTYYADSVKGRFTISRDNAKNTVYLQMNSLKPEDTAVYYWNVYRFSRYDYWGQGTQVTVSS | high polyreactivity |
| QVQLVESGGGLVQAGGSLRLSCAASGSTFSRNAMGWYRQAPGKERELVAGITTSGGRTYYADSVKGRFTISRDNAKNTVYLQMNSLKPEDTAVYYCANSGYRYFYGRPRFDYWGQGTQVTVSS | high polyreactivity |
| QVQLVESGGGLVQAGGSLRLSCAASGSTLPGNVMGWYRQAPGKERELVAAISKRGASTYYADSVKGRFTISRDNAKNNVYLQTPRLKPEDSAVYYCASRTRGSVVRFDYWGQGTQVTVSS | high polyreactivity |
| QVQRVESGVGLVQAGGSLRLSCAASGLTFLWYAMGWYRQAPGKERELVAAITSGGRTKYADSVKGRFTISRDNAKNTVYLQMNSLKPEDTAVYYCAAYPQWWGYDYWGQGTQVTVSS | high polyreactivity |
